# Data taken from US12269859B2, “Synthetic immune receptors and methods of use thereof” (Angeles Therapeutics, Inc., priority 2016, dated 2025).
# Test system: target antigen-expressing cell line
# Assay: Jurkat NFAT-GFP assay, coculture with target cell lines expressing the respective target antigen (summary Table 10A)
# Type: cell-based, human
# Design: key: The signs +/−, +, 2+ etc. after the name of the cell lines indicate the relative degree of positivity on the Jurkat-NFAT-GFP assay as measured by the % GFP positive cells; +: relative degree of positivity on the Jurkat-NFAT-GFP assay as measured by the % GFP positive cells; 2+: relative degree of positivity on the Jurkat-NFAT-GFP assay as measured by the % GFP positive cells
# Procedure, shortened: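 Jurkat cells carrying an NFAT-driven GFP reporter and lentivirally expressing a SIR were cocultured with antigen-bearing target cells (E:T ~1:2) for about 4–18 h. GFP induction read by flow cytometry as % GFP+ cells, scored positive and graded (+/−, +, 2+) against parental Jurkat-NFAT-GFP cells.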
molecule,measurement,setting,value
"111516-M03 (protein, Polynucleotide encoding a Synthetic Immune Receptor (SIR)) MALPVTALLLPLALLLHAARPLEGKPIPNPLLGLDSTGSGEDLKNVFPPEVAVFEPSKAEIAHTQKATLVCLATGFYPDHVELSWWVNGKEVHSGVCTDPQPLKEQPALNDSRYCLSSRLRVSATFWQNPRNHFRCQVQFYGLSENDEWTQDRAKPVTQIVSAEAWGRADCGITSASYHQGVLSATILYEILLGKATLYAVLVSALVLMAMVKRKDSRGRAKRSGSGATNFSLLKQAGDVEENPGPTSMALPVTALLLPLALLLHAARPDIVLTQSPLSLAVSLGQPAIISCKASQSVSFAGTSLMHWYHQKPGQQPRLLIYRASNLEAGVPDRFSGSGSKTDFTLTISPVEAEDAATYYCQQSREYPYTFGGGTKLEIKRGGGGSGGGGSGGGGSQVQLVQSGAEVVKPGASVKISCKASGYTFTGYFMNWVKQSPGQSLEWIGRIHPYDGDTFYNQKFQGKATLTVDKSSNTAHMELLSLTSEDFAVYYCTRYDGSRAMDYWGQGTTVTVSSTREQKLISEEDGSGIQNPDPAVYQLRDSKSSDKSVCLFTDFDSQTNVSQSKDSDVYITDKCVLDMRSMDFKSNSAVAWSNKSDFACANAFNNSIIPEDTFFPSSDVPCDVKLVEKSFETDTNLNFQNLSVIGFRILLLKVAGFNLLMTLRLWSSRAKRSGSGVKQTLNFDLLKLAGDVESNPGPSRGHMTEYKPTVRLATRDDVPRAVRTLAAAFADYPATRHTVDPDRHIERVTELQELFLTRVGLDIGKVWVADDGAAVAVWTTPESVEAGAVFAEIGPRMAELSGSRLAAQQQMEGLLAPHRPKEPAWFLATVGVSPDHQGKGLGSAVVLPGVEAAERAGVPAFLETSAPRNLPFYERLGFTVTADVEVPEGPRTWCMTRKPGA",NFAT-GFP ASSAY Positive Cell lines,coculture with LoVo cells,(+/−)
same,NFAT-GFP ASSAY Positive Cell lines,coculture with SKOV3 cells,"SKOV3 (+), LoVo"
"101216-Y07 (protein, Synthetic Immune Receptor (SIR)) MALPVTALLLPLALLLHAARPDIQMTQSPSSLSASVGDRVTITCRASQGISSWLAWYQQKPEKAPKSLIYAASSLQSGVPSRFSGSGSGTDFTLTISSLQPEDFATYYCQQYNSYPPTFGGGTKVEIKLEGKPIPNPLLGLDSTGSGEDLKNVFPPEVAVFEPSKAEIAHTQKATLVCLATGFYPDHVELSWWVNGKEVHSGVCTDPQPLKEQPALNDSRYCLSSRLRVSATFWQNPRNHFRCQVQFYGLSENDEWTQDRAKPVTQIVSAEAWGRADCGITSASYHQGVLSATILYEILLGKATLYAVLVSALVLMAMVKRKDSRGRAKRSGSGATNFSLLKQAGDVEENPGPTSMDWIWRILFLVGAATGAHSFEEVQLVESGGGLVQPGESLRLSCVASGFTFSRYKMNWVRQAPGKGLEWVSYISRSGRDIYYADSVKGRFTISRDNAKNSLYLQMNSLRDEDTAVYYCAGTVTTYYYFGMDVWGHGTTVTVSSTREQKLISEEDGSGIQNPDPAVYQLRDSKSSDKSVCLFTDFDSQTNVSQSKDSDVYITDKCVLDMRSMDFKSNSAVAWSNKSDFACANAFNNSIIPEDTFFPSSDVPCDVKLVEKSFETDTNLNFQNLSVIGFRILLLKVAGFNLLMTLRLWSSRAKRSGSGVKQTLNFDLLKLAGDVESNPGPSRGHMTEYKPTVRLATRDDVPRAVRTLAAAFADYPATRHTVDPDRHIERVTELQELFLTRVGLDIGKVWVADDGAAVAVWTTPESVEAGAVFAEIGPRMAELSGSRLAAQQQMEGLLAPHRPKEPAWFLATVGVSPDHQGKGLGSAVVLPGVEAAERAGVPAFLETSAPRNLPFYERLGFTVTADVEVPEGPRTWCMTRKPGA",NFAT-GFP ASSAY Positive Cell lines,coculture with H460 cells,"H460 (+/−), HCT116"
same,NFAT-GFP ASSAY Positive Cell lines,coculture with HCT116 cells,(+/−)
021517-I01 (protein) MALPVTALLLPLALLLHAARPLEGKPIPNPLLGLDSTGSGEDLKNVFPPEVAVFEPSKAEIAHTQKATLVCLATGFYPDHVELSWWVNGKEVHSGVCTDPQPLKEQPALNDSRYCLSSRLRVSATFWQNPRNHFRCQVQFYGLSENDEWTQDRAKPVTQIVSAEAWGRADCGITSASYHQGVLSATILYEILLGKATLYAVLVSALVLMAMVKRKDSRGRAKRSGSGATNFSLLKQAGDVEENPGPTSMALPVTALLLPLALLLHAARPQSVVTQPPSVSGAPGQRVTISCTGSSSNIGAGYDVHWYQQLPGTAPKLLIYGNSNRPSGVPDRFSGSKSGTSASLAITGLQAEDEADYYCQSYDSSLSGSYVFGTGTKLTVLGGGGGSGGGGSGGGGSEVQLVETGGNLVQPGASLRLSCAASGFSFSGTAMHWVRQAPGKGLEWVSTISSTGRSTYYRDSVKGRFTISRDNSKNTLYLQMNSLRGEDTAVYYCARVSFDYWGQGTLVTVSSTREQKLISEEDGSGIQNPDPAVYQLRDSKSSDKSVCLFTDFDSQTNVSQSKDSDVYITDKCVLDMRSMDFKSNSAVAWSNKSDFACANAFNNSIIPEDTFFPSSDVPCDVKLVEKSFETDTNLNFQNLSVIGFRILLLKVAGFNLLMTLRLWSSRAKRSGSGVKQTLNFDLLKLAGDVESNPGPSRGHMTEYKPTVRLATRDDVPRAVRTLAAAFADYPATRHTVDPDRHIERVTELQELFLTRVGLDIGKVWVADDGAAVAVWTTPESVEAGAVFAEIGPRMAELSGSRLAAQQQMEGLLAPHRPKEPAWFLATVGVSPDHQGKGLGSAVVLPGVEAAERAGVPAFLETSAPRNLPFYERLGFTVTADVEVPEGPRTWCMTRKPGA,NFAT-GFP ASSAY Positive Cell lines,coculture with L363 cells,L363 (+/−)
"100615-C06 (protein, Synthetic Immune Receptor (SIR)) MALPVTALLLPLALLLHAARPDIQMTQSPSSLSASVGDRVTITCRASQGIRNNLAWYQQKPGKAPKRLIYAASNLQSGVPSRFTGSGSGTEFTLIVSSLQPEDFATYYCLQHHSYPLTSGGGTKVELEGKPIPNPLLGLDSTGSGEDLKNVFPPEVAVFEPSKAEIAHTQKATLVCLATGFYPDHVELSWWVNGKEVHSGVCTDPQPLKEQPALNDSRYCLSSRLRVSATFWQNPRNHFRCQVQFYGLSENDEWTQDRAKPVTQIVSAEAWGRADCGITSASYHQGVLSATILYEILLGKATLYAVLVSALVLMAMVKRKDSRGRAKRSGSGATNFSLLKQAGDVEENPGPTSMDWIWRILFLVGAATGAHSFEEVQVLESGGGLVQPGGSLRLSCAASGFTFSSYAMSWVRQAPGKGLEWVSAISGSGGSTNYADSVKGRFTISRDNSKNTLYLQMNSLRAEDTAVYYCAGSSGWSEYWGQGTLVTVSSTREQKLISEEDGSGIQNPDPAVYQLRDSKSSDKSVCLFTDFDSQTNVSQSKDSDVYITDKCVLDMRSMDFKSNSAVAWSNKSDFACANAFNNSIIPEDTFFPSSDVPCDVKLVEKSFETDTNLNFQNLSVIGFRILLLKVAGFNLLMTLRLWSSRAKRSGSGVKQTLNFDLLKLAGDVESNPGPSRGHMTEYKPTVRLATRDDVPRAVRTLAAAFADYPATRHTVDPDRHIERVTELQELFLTRVGLDIGKVWVADDGAAVAVWTTPESVEAGAVFAEIGPRMAELSGSRLAAQQQMEGLLAPHRPKEPAWFLATVGVSPDHQGKGLGSAVVLPGVEAAERAGVPAFLETSAPRNLPFYERLGFTVTADVEVPEGPRTWCMTRKPGA",NFAT-GFP ASSAY Positive Cell lines,coculture with HeLa (Hela) cells,(+/−)
same,NFAT-GFP ASSAY Positive Cell lines,coculture with LoVo cells,"LoVo (+/−), HeLa"
"111815-E04 (protein, Polynucleotide encoding a Synthetic Immune Receptor (SIR)) MALPVTALLLPLALLLHAARPDEFEVQLVESGGGLVQAGGSLRLSCVASGISSSKRNMGWYRQAPGKQRESVATISSGGNKDYTDAVKDRFTISRDTTKNTVYLQMNSLKPEDTAVYYCKIEAGTGWATRRGYTYWGQGTLVTVSSLEGKPIPNPLLGLDSTGSGEDLKNVFPPEVAVFEPSEAEISHTQKATLVCLATGFYPDHVELSWWVNGKEVHSGVCTDPQPLKEQPALNDSRYCLSSRLRVSATFWQNPRNHFRCQVQFYGLSENDEWTQDRAKPVTQIVSAEAWGRADCGFTSESYQQGVLSATILYEILLGKATLYAVLVSALVLMAMVKRKDSRGRAKRSGSGATNFSLLKQAGDVEENPGPTSMDWIWRILFLVGAATGAHSFEVQLVESGGGSVQAGGSLRLSCTTSGRALNMYVMGWFRQAPGNEREFVAATSSSGGSTSYPDSVKGRFTISRDNAKNTVYLQMNSLKPEDTAAYRCAASPYVSTPTMNILEEYRYWGLGTQVTVSSTREQKLISEEDGSGIQNPDPAVYQLRDSKSSDKSVCLFTDFDSQTNVSQSKDSDVYITDKCVLDMRSMDFKSNSAVAWSNKSDFACANAFNNSIIPEDTFFPSPESSCDVKLVEKSFETDTNLNFQNLSVIGFRILLLKVAGFNLLMTLRLWSSRAKRSGSGVKQTLNFDLLKLAGDVESNPGPSRGHMTEYKPTVRLATRDDVPRAVRTLAAAFADYPATRHTVDPDRHIERVTELQELFLTRVGLDIGKVWVADDGAAVAVWTTPESVEAGAVFAEIGPRMAELSGSRLAAQQQMEGLLAPHRPKEPAWFLATVGVSPDHQGKGLGSAVVLPGVEAAERAGVPAFLETSAPRNLPFYERLGFTVTADVEVPEGPRTWCMTRKPGA",NFAT-GFP ASSAY Positive Cell lines,coculture with Bv173 cells,(2+)
same,NFAT-GFP ASSAY Positive Cell lines,coculture with U266 cells,"U266 (2+), Bv173"
031517-Q04 (protein) MALPVTALLLPLALLLHAARPLEGKPIPNPLLGLDSTGSGEDLKNVFPPEVAVFEPSKAEIAHTQKATLVCLATGFYPDHVELSWWVNGKEVHSGVCTDPQPLKEQPALNDSRYCLSSRLRVSATFWQNPRNHFRCQVQFYGLSENDEWTQDRAKPVTQIVSAEAWGRADCGITSASYHQGVLSATILYEILLGKATLYAVLVSALVLMAMVKRKDSRGRAKRSGSGATNFSLLKQAGDVEENPGPTSMALPVTALLLPLALLLHAARPQSVVTQPASVSGSPGQSITISCTGTSSDVGGYNYVSWYQQHPGKAPKLMIYDVSKRPSGVSNRFSGSKSGNTASLTISGLQAEDEADYYCSSYTSSSTLVFGGGTKLTVLGGGGGSGGGGSGGGGSEVQLVESGGAFVQPGGSLRLSCAASGFTFSSYAMTWVRQAPGKGLEWVSTISGRGRSTFYADSVKGRFTISRDNSKNTLYLQMNSLRAEDTAVYYCARYYHAGAFDLWGQGTLVTVSSTREQKLISEEDGSGIQNPDPAVYQLRDSKSSDKSVCLFTDFDSQTNVSQSKDSDVYITDKCVLDMRSMDFKSNSAVAWSNKSDFACANAFNNSIIPEDTFFPSSDVPCDVKLVEKSFETDTNLNFQNLSVIGFRILLLKVAGFNLLMTLRLWSSRAKRSGSGVKQTLNFDLLKLAGDVESNPGPSRGHMTEYKPTVRLATRDDVPRAVRTLAAAFADYPATRHTVDPDRHIERVTELQELFLTRVGLDIGKVWVADDGAAVAVWTTPESVEAGAVFAEIGPRMAELSGSRLAAQQQMEGLLAPHRPKEPAWFLATVGVSPDHQGKGLGSAVVLPGVEAAERAGVPAFLETSAPRNLPFYERLGFTVTADVEVPEGPRTWCMTRKPGA,NFAT-GFP ASSAY Positive Cell lines,coculture with L363 cells,L363 (+/−)
